Article PMC3064780 (Nucleic Acids Research, 2010)
Values belong to the molecule of their own block, whether it stands above or below them.

Tests used:
eIF4A [1] = molecular target: T1, eIF4A (Saccharomyces cerevisiae, UniProt P10081); assay: competitive titration of the mantADP/protein complex, or ITC; assay type: binding; conditions: pH 7.5, 80 mM KCl, Mg2+; without eIF4G
T1 sequence (P10081 1-395): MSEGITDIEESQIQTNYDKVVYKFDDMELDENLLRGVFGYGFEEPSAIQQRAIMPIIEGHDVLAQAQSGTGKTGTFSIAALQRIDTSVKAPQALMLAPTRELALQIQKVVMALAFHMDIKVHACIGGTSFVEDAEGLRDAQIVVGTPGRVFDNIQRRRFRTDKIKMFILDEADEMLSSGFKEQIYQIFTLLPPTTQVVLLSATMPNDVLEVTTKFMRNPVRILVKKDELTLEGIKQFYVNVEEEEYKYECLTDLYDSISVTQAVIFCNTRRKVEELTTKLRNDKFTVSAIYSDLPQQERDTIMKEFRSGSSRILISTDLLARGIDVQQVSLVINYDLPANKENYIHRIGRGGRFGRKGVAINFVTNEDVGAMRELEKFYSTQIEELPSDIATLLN

eIF4A/eIF4G_mid complex [2] = molecular target: T2, eIF4A/eIF4G_mid complex (Saccharomyces cerevisiae, UniProt P10081); assay: as above; assay type: binding; conditions: pH 7.5, 80 mM KCl, Mg2+; eIF4G_mid present
T2 sequence (P10081 1-395): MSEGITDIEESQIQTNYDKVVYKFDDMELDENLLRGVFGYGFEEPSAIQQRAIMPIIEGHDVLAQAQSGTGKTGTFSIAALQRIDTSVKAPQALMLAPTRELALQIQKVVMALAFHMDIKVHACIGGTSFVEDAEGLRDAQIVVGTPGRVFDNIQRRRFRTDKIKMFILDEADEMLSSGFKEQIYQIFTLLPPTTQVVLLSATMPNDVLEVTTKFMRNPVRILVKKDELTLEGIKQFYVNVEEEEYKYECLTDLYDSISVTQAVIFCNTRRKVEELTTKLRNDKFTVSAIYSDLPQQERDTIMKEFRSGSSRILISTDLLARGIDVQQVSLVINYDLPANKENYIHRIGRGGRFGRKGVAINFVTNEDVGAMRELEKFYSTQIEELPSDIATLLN
T2 sequence (P39935 572-853 K590R partner): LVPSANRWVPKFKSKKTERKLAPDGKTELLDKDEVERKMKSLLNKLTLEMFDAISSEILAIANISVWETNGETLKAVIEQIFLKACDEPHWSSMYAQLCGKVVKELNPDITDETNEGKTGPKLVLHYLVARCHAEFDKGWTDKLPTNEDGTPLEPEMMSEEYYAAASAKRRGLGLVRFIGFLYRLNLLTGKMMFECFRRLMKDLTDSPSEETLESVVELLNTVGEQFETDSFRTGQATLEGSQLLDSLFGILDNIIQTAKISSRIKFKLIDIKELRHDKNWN

[3] = molecular target: eIF4G_mid (aa 572–853 of eIF4G, middle domain) (yeast) (UniProt P39935); assay: ITC
eIF4A/eIF4G_mid complex [4] = molecular target: T2, eIF4A/eIF4G_mid complex; assay: ITC or competitive titration; assay type: binding; conditions: pH 7.5, 80 mM KCl, Mg2+; eIF4G_mid present
eIF4A [5] = molecular target: T1, eIF4A; assay: ITC or competitive titration; assay type: binding; conditions: pH 7.5, 80 mM KCl, Mg2+; without eIF4G
[6] = molecular target: T3, eukaryotic translation initiation factor 4A (eIF4A) (yeast, UniProt P10081 1-395); assay: ITC
T3 sequence (looked up): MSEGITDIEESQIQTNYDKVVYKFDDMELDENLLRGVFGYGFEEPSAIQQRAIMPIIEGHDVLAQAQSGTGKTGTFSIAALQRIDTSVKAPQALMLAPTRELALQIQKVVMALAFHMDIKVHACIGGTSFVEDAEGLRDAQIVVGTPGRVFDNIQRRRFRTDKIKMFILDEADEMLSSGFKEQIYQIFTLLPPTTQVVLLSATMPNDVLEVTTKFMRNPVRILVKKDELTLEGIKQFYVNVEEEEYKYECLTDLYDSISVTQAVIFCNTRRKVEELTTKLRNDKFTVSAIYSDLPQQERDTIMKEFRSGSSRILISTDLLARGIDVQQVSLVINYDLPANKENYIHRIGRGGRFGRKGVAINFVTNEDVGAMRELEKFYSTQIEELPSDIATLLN

eIF4A_E43R = molecular target: T4, eIF4A_E43R (yeast, UniProt P10081 1-395, E43R); assay: ITC
T4 sequence (looked up): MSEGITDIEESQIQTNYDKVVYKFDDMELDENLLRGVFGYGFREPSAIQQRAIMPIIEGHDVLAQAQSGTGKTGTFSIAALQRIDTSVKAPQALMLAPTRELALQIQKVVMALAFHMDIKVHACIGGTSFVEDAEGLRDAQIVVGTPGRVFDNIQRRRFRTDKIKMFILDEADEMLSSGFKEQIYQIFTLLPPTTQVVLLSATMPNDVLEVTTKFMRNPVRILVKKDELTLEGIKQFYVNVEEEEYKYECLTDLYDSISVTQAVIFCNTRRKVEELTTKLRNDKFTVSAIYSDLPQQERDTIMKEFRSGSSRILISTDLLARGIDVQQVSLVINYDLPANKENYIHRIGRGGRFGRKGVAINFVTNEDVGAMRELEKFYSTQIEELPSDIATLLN

- Kd [3]: 1.3 µM
Molecule: eIF4A-RecA_C (aa 226-406) (domain or fragment)

- Kd [6]: 0.6 ± 0.1 µM
- Kd (eIF4A_E43R): 0.2 ± 0.02 µM
B2: eIF4G_mid (aa 572–853 of eIF4G, middle domain) (domain or fragment, yeast, UniProt P39935 572-853, looked up)
chain: LVPSANRWVPKFKSKKTERKLAPDGKTELLDKDEVERKMKSLLNKLTLEMFDAISSEILAIANISVWETNGETLKAVIEQIFLKACDEPHWSSMYAQLCGKVVKELNPDITDETNEGKTGPKLVLHYLVARCHAEFDKGWTDKLPTNEDGTPLEPEMMSEEYYAAASAKRRGLGLVRFIGFLYRLNLLTGKMMFECFRRLMKDLTDSPSEETLESVVELLNTVGEQFETDSFRTGQATLEGSQLLDSLFGILDNIIQTAKISSRIKFKLIDIKELRHDKNWN

- Kd [6]: 1 ± 0.1 µM
B3: eIF4G_R835E (domain or fragment, yeast, UniProt P39935 572-853, looked up)
chain: LVPSANRWVPKFKSKKTERKLAPDGKTELLDKDEVERKMKSLLNKLTLEMFDAISSEILAIANISVWETNGETLKAVIEQIFLKACDEPHWSSMYAQLCGKVVKELNPDITDETNEGKTGPKLVLHYLVARCHAEFDKGWTDKLPTNEDGTPLEPEMMSEEYYAAASAKRRGLGLVRFIGFLYRLNLLTGKMMFECFRRLMKDLTDSPSEETLESVVELLNTVGEQFETDSFRTGQATLEGSQLLDSLFGILDNIIQTAKISSEIKFKLIDIKELRHDKNWN

Further lines, the molecule ahead of its results:

Molecule: Nc1ncnc2c1ncn2[C@@H]1O[C@H](COP(=O)(O)OP(=O)(O)O)[C@@H](O)[C@H]1O [ADP]
- Kd (eIF4A [1]): the affinity of eIF4A for ADP and ATP is moderately decreased in the presence of eIF4G
- Kd (eIF4A/eIF4G_mid complex [2]): the affinity of eIF4A for ADP and ATP is moderately decreased in the presence of eIF4G

Molecule: Nc1ncnc2c1ncn2[C@@H]1O[C@H](COP(=O)(O)OP(=O)(O)OP(=O)(O)O)[C@@H](O)[C@H]1O [ATP]
- Kd (eIF4A/eIF4G_mid complex [4]): the affinity of eIF4A for ADP and ATP is moderately decreased in the presence of eIF4G
- Kd (eIF4A [5]): the affinity of eIF4A for ADP and ATP is moderately decreased in the presence of eIF4G

B1: eIF4G_K831E/S834D/R835E (domain or fragment, yeast, UniProt P39935 572-853, looked up)
chain: LVPSANRWVPKFKSKKTERKLAPDGKTELLDKDEVERKMKSLLNKLTLEMFDAISSEILAIANISVWETNGETLKAVIEQIFLKACDEPHWSSMYAQLCGKVVKELNPDITDETNEGKTGPKLVLHYLVARCHAEFDKGWTDKLPTNEDGTPLEPEMMSEEYYAAASAKRRGLGLVRFIGFLYRLNLLTGKMMFECFRRLMKDLTDSPSEETLESVVELLNTVGEQFETDSFRTGQATLEGSQLLDSLFGILDNIIQTAEISDEIKFKLIDIKELRHDKNWN
- Kd [6]: 1.1 ± 0.1 µM
